Series [1] deals with the molecule itself. Nature of the series: SEC-MALS. For orientation: Size exclusion chromatography separates by hydrodynamic size, large species first.
The target of series [2] is BioGFP-SLAIN2 (human, UniProt Q9P270 1-581, biotin (substrate linker of the biotin ligase BirA, co-expressed)). Nature of the series: pull-down.
Series [3] has as its target T1, CLIPCG12 (human, UniProt P30622 48-300).
T1 sequence: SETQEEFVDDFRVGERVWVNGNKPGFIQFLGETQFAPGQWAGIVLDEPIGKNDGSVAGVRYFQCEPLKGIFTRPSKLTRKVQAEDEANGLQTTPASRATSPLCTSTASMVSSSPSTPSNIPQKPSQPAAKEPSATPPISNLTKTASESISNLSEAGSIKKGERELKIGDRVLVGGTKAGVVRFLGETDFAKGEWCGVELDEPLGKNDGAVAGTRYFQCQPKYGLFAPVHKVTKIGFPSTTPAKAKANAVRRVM
Kind of series: ITC. In general terms: ITC needs no label: the signal is the heat of the interaction.

A word on the stoichiometry N: it is the number of molecules, sites or subunits per partner or assembly.

B1: SLAIN2 N-terminal fragment (residues 1–43) (domain or fragment)
chain: not shown
Consider B1, for which the “stoichiometry N” value in series [1] is 2.

B2: GST–CLIP-170-N (domain or fragment)
chain: MSMLKPSGLKAPTKILKPGSTALKTPAAAAAPLEKTVPSEKASGPPSSETQEEFVDDFRVGERVWVNGNKPGFIQFLGETQFAPGQWAGIVLDEPIGKNDGSVAGVRYFQCEPLKGIFTRPSKLTRKVQAEDEANGLQTAHARAASPLSTAAATMVSSSPATPSNIPQKPSQPVAKETSATPQISNLTKTASESISNLSEAGSVKKGERELKIGDRVLVGGTKAGVVRFLGETDFAKGEWCGVELDEPLGKNDGAVAGTRYFQCQPKYGLFAPVHKVTKIGFPSTTPAKAKAAAVRRVMATTPASLKRSP
On to B2, for which the binding result in series [2] is recorded as “binds”.
With GSMKDDSWKDGCY [SLAIN2c], the “stoichiometry N” value in series [3] amounted to 2.

For the origin of these results see paper PMC3115796 (The Journal of Cell Biology, 2011).
